The source of these data is paper PMC9519552, “Activation of the human insulin receptor by non-insulin-related peptides” (Nature Communications, 2022).

This data set deals with the molecule itself. As to the kind of experiment: cryo-EM structure; IM459-complexed hIR-A^ecto, eluted with IM459 from an insulin-affinity column and purified by SEC in TBSA; focussed refinement to ca 5.0 Å. On the technique in general: Size exclusion chromatography separates by hydrodynamic size, large species first.

B1: hIR-A^ecto (insulin receptor isoform A ectodomain, residues 1-914) (domain or fragment, human, UniProt P06213-2 28-941, looked up)
chain: HLYPGEVCPGMDIRNNLTRLHELENCSVIEGHLQILLMFKTRPEDFRDLSFPKLIMITDYLLLFRVYGLESLKDLFPNLTVIRGSRLFFNYALVIFEMVHLKELGLYNLMNITRGSVRIEKNNELCYLATIDWSRILDSVEDNYIVLNKDDNEECGDICPGTAKGKTNCPATVINGQFVERCWTHSHCQKVCPTICKSHGCTAEGLCCHSECLGNCSQPDDPTKCVACRNFYLDGRCVETCPPPYYHFQDWRCVNFSFCQDLHHKCKNSRRQGCHQYVIHNNKCIPECPSGYTMNSSNLLCTPCLGPCPKVCHLLEGEKTIDSVTSAQELRGCTVINGSLIINIRGGNNLAAELEANLGLIEEISGYLKIRRSYALVSLSFFRKLRLIRGETLEIGNYSFYALDNQNLRQLWDWSKHNLTITQGKLFFHYNPKLCLSEIHKMEEVSGTKGRQERNDIALKTNGDQASCENELLKFSYIRTSFDKILLRWEPYWPPDFRDLLGFMLFYKEAPYQNVTEFDGQDACGSNSWTVVDIDPPLRSNDPKSQNHPGWLMRGLKPWTQYAIFVKTLVTFSDERRTYGAKSDIIYVQTDATNPSVPLDPISVSNSSSQIILKWKPPSDPNGNITHYLVFWERQAEDSELFELDYCLKGLKLPSRTWSPPFESEDSQKHNQSEYEDSAGECCSCPKTDSQILKELEESSFRKTFEDYLHNVVFVPRPSRKRRSLGDVGNVTVAVPTVAAFPNTSSTSVPTSPEEHRPFEKVVNKESLVISGLRHFTGYRIELQACNQDTPEERCSVAAYVSARTMPEAKADDIVGPVTHEIFENNVVHLMWQEPKEPNGLIVLYEVSYRRYGDEELHLCVSRKHFALERGCRLRGLSPGNYSVRIRATSLAGNGSWTEPTYFYVTDYLDVPSN
notes: written as one chain of the [αβ]2 dimer; also called hIR ectodomain
For B1, the binding result is listed as “binds”.
